In patent US8017725B2, “Use of heparin-binding domain of fibronectin for diagnosis and treatment of cancer” (Novartis Forschungesstiftung Zweigniederlassung Friedrich …, priority 2001, dated 2011):
“Also recorded” adds a separate entry of the source.

Experiments:
[1] = test system: T98G cells, MDA-MB435 cells and rat embryo fibroblasts REF52; experiment: Attachment assay: cell spreading on fibronectin/tenascin-C with added fibronectin fragment; assay type: cell-based
Method: 60-well microtiter plates (Nunc) were coated with 10 μg/ml ECM molecules giving rise to 1 μg/cm^2 (fibronectin and tenascin-C) and 4 μg/cm^2 (FNIII13) for 1 h at 37° C. ECM proteins were coated separately, starting with fibronectin, followed by tenascin-C, FNIII13 and BSA. The non-coated plastic surface was blocked with 1% heat-inactivated BSA in PBS giving rise to 10 μg/cm^2 protein. Similarly, mixed substrata of collagen I and laminin 1, respectively with tenascin-C were prepared and tenascin-C was detected by ELISA.
Efficient fibronectin and tenascin-C coating was determined by ELISA with an anti-fibronectin and anti-tenascin-C antibody (Fischer, D. et al (1995) J Biol Chem 270: 3378-3384), respectively and by PAGE analysis of lysed surface-bound ECM material combined with Coomassie Brilliant Blue staining. Before plating, cells were serum starved for 18 h in DMEM containing 1×ITS (insulin, transferrin, selene) supplement, trypsinised, trypsin was blocked with 100 μg/ml soybean trypsin inhibitor in PBS and, cells were resuspended in serum-free medium and counted. 200-500 cells per well were plated for the indicated time points, fixed by addition of glutaraldehyde (2% final concentration) for 15 minutes and stained with 0.1% crystalviolet in 20% methanol for 30 minutes. Cells were observed under a Nikon microscope (Nikon diaphot) and pictures were taken with a Nikon camera.
(§1) Cells were plated on substrata (FN, FN/TN, FN/TN/III13, FN/TN+III13, III13, or BSA) for 1 h and 2 h, fixed and stained with crystal violet or vinculin and TRITC—labelled phalloidin. Adherent cells were photographed and spread cells were counted. Six-fold molar excess of FNIII13 (4 μg/cm^2) was either bound to a mixed fibronectin/tenascin-C substratum prior to addition of the cells (FN/TN/III13) or, was added in solution together with the cells (FN/TN+FNIII13). Proliferation of MDA-MB435 cells and DNA replication of T98G glioblastoma cells were determined as described in Examples 4 and 5. […] T98G cells plated for 2 h on fibronectin or on the mixed substratum were stained for vinculin. […] In addition, polymerisation of actin into stress fibres was blocked by tenascin-C. No polymerised actin was found.

T98G and REF52 cells = experiment: Immunofluorescence of actin stress fibres and focal contacts; assay type: cell-based
Method: 10^4 cells were transferred onto 4-well Cellstar plastic plates (Greiner) that were coated with ECM proteins as described. Cells were fixed with 4% paraformaldehyde, 50 mM phosphate buffer, 5 mM EDTA in PBS for 15 minutes, blocked with 3% BSA, 0.5% Tween-20 in PBS and incubated with primary and secondary antibodies in blocking solution. Slides were embedded in 10.5% Mowiol containing 2.5% DABCO as antifade agent. Expression of syndecans was determined by immunofluorescence.
as §1

syndecan-4 = experiment: Syndecan-4 immunoprecipitation and immunoblotting for FNIII13; assay type: binding
Method: (§2) To investigate FNIII13 as a potential ligand of syndecan-4, the interaction of syndecan-4 with FNIII13 was tested. Upon addition of FNIII13 to T98G:S4* cells, FNIII13 was detected in a syndecan-4 immunoprecipitation followed by western blotting with a GST specific antibody. This interaction was blocked upon addition of heparin. Parental and syndecan-4 overexpressing T98G:S4* cells were incubated with (100 μg/ml) FNIII13 for 1 h in the presence or absence of 0.5 mg/ml heparin. Syndecan-4-bound FNIII13 was detected by immunoprecipitation of syndecan-4 and immunoblotting for FNIII13. Recombinant FNIII13 was added to the cells in the absence or presence of (0.5 mg/ml) heparin. […] To further test whether FNIII13 binds to syndecan-4, FNIII13 was added to T98G cells and cell surface-bound FNIII13 was detected by pull down of the GST-tagged FNIII13 with glutathione Sepharose followed by western blotting with an anti-His antibody or by immunofluorescence with an anti-GST antibody. […] This interaction could be blocked by heparin showing that syndecan-4 bound FNIII13 in a glycosaminoglycan-dependent manner. In addition, cell surface-bound FNIII13 was detected by immunofluorescence with an anti-His and anti-GST antibody. […] Syndecan-2 expression was determined by incubation with chicken anti-syndecan-2, followed by rabbit anti-chicken and FITC coupled goat anti-rabbit immunostaining.

tenascin-C [2] = experiment: In vitro binding assay (ELISA) to tenascin-C; design: species or system chicken; details: substratum-immobilised tenascin-C
Method: (§3) 96-well ELISA plates were coated with the indicated ECM proteins for 1 h at 37° C., blocked with 1% milkpowder, 0.05% Tween-20 in PBS. ECM proteins were added at the indicated concentrations in blocking solution for 1 h, washed with blocking solution and anti-fibronectin or anti-tenascin-C antibodies were added. Bound proteins were detected by immune reaction with a peroxidase-coupled secondary antibody specifically recognising anti-fibronectin and anti-tenascin-C antibodies, respectively, followed by colour reaction with 21 mg/ml citric acid 1-hydrate, 34 mg/ml Na2HPO4.2H2O, 0.4 mg/ml phenylenediamine, 1 μl H2O2 that was stopped with 4M sulphuric acid. The absorbance was read at […].
Bound fragments were detected with a polyclonal anti-fibronectin antibody, bound tenascin-C was detected with a monoclonal anti-tenascin-C antibody.

[3] = test system: binding of tenascin-C to surface-immobilised intact fibronectin; experiment: Competition of tenascin-C binding to surface-immobilised intact fibronectin
Method: as §3
No binding of the recombinant fragment FNIII7-10, including the RGD and synergy sites, to tenascin-C was detected in an ELISA assay.

tenascin-C [4] = experiment: Co-immunoprecipitation with tenascin-C; assay type: binding, chicken
T98G:S4* cells = experiment: Cell surface binding of FNIII13 (pull down, western blotting, immunofluorescence); assay type: cell-based, human; details: compared to parental T98G
Method: as §2

[5] = test system: FAK (focal adhesion kinase) autophosphorylation at Y397; experiment: FAK autophosphorylation by immunoblotting; assay type: cell-based, human; details: T98G parental and T98G:S4* cells
Method: An experiment was performed to check for the possibility that tenascin-C might compete with syndecan-4 for binding to the HepII site in fibronectin. The experiment tested whether activation of syndecan-4 through overexpression could rescue the tenascin-C-induced spreading defect on fibronectin. Parent T98G cells, pools (T98G:S4) or a selected clone (T98G:S4*) of glioblastoma cells stably overexpressing syndecan-4 (T98G:S4) were plated on the indicated substrata for 30 minutes, 2 h, 18 h or fixed, stained with crystal violet, photographed, and counted or stained with TRITC-labelled phalloidin and vinculin. Syndecan-4 was detected by immunofluorescence with an anti-syndecan-4 antibody. There was no staining with an unspecific anti-His monoclonal antibody (control), nor with the secondary antibody alone. FAK (focal adhesion kinase) autophosphorylation at Y397 and total FAK expression levels were assessed by immunoblotting with specific antibodies. DNA replication was determined as described in Example 4 and 5. As a result, pools of T98G cells (T98G:S4) that overexpressed syndecan-4 thereby activating syndecan-4 attached and spread on the mixed fibronectin/tenascin-C substratum. The majority of the 64.7% of T98G:S4 cells that attached also spread on the fibronectin/tenascin-C substratum. […]

[6] = fragment bound (immobilised) to the mixed substratum

SEQ ID NO:4: 20 amino acid fragment of FNIII13 having the sequence of SEQ ID NO:4, made by solid phase synthesis (RRARVTDATETTITISWRTK; listed as Homo sapiens)
restoration of cell spreading on fibronectin/tenascin-C substratum [1, 6]: restored cell spreading
restoration of actin stress fibres and focal contacts on fibronectin/tenascin-C substratum (T98G and REF52 cells): largely restored

heparin [reference compound]
effect on the FNIII13/syndecan-4 interaction (syndecan-4; 0.5 mg/ml heparin): blocked

fibronectin: Fibronectin prepared from horse serum by gelatin agarose chromatography
binding to tenascin-C in ELISA (tenascin-C [2]): binds to substratum-immobilised tenascin-C in a dose-dependent manner

B1: FNIII13: recombinant 13th fibronectin type III repeat of the HepII site (SEQ ID NO:1) (protein, listed as Homo sapiens)
chain: NVSPPRRARVTDATETTITISWRTKTETITGFQVDAVPANGQTPIQRTIKPDVRSYTITGLQPGTDYKIYLYTLNDNARSSPVVIDAST
FNIII13 bound to syndecan-4 in immunoprecipitation (syndecan-4; T98G:S4* cells, 100 μg/ml FNIII13, 1 h): detected
competition of tenascin-C binding to immobilised intact fibronectin [3]: competed for by FNIII13 in a concentration-dependent fashion
complex formation with tenascin-C in co-immunoprecipitation (tenascin-C [4]): form complexes
binding to the cell surface of syndecan-4 overexpressing T98G cells (T98G:S4* cells): dose-dependent and heparin-competable manner; also recorded: several fold increased levels
binding to tenascin-C in ELISA (tenascin-C [2]): bound to tenascin-C in a dose-dependent manner reaching saturation
attachment and spreading on the fragment alone as substratum ([1]; FNIII13 substratum without fibronectin): poorly attached and remained rounded
restoration of cell spreading on fibronectin/tenascin-C substratum ([1]; fragment added in solution together with the cells): restored
restoration of cell spreading on fibronectin/tenascin-C substratum [1, 6]: could restore the cell spreading defect
FAK autophosphorylation at Y397 [5]: largely restored FAK autophosphorylation
restoration of actin stress fibres and focal contacts on fibronectin/tenascin-C substratum (T98G and REF52 cells): largely restored
